In the nanobody polyreactivity screen of Harvey et al. (2022):

Assay: yeast display, Sf9 membrane polyspecificity reagent, FACS + sequencing; frameworks hold sequencing errors
Method in brief: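 Nanobodies from a synthetic yeast display library (Saccharomyces cerevisiae BJ5465), induced 36–48 hours with galactose, were stained 1 hour at 4 °C with 10% biotinylated, detergent-solubilized Sf9 membrane reagent, enriched on streptavidin microbeads, then FACS-sorted. Anti-HA (expression) and streptavidin (reagent binding) fluorescence set low and high (top ~1%) gates. Polyreactivity labels come from the gate of origin. Genes were colony-PCR amplified, MiSeq 2 × 250 sequenced and filtered by CDR length.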

Row | Sequence | polyreactivity (PSR sort gate)
1 | QVQLVESGGGLVQAGGSLRLSCAASGRTFTGYAMGWYRQAPGKERELVAAITRSGTRTYYADSVKGRFTISRDNAKNTVYLQMNSLKPEDTAVYYCAAADTQGVSMDYWGQGTQVTVSS | high polyreactivity
2 | QVQLVESGGGLVQAGGSLRLSCAASGRTFTGYAMGWYRQAPGKERELVAAMSASGGSTYYADSVKGRFTISRDNAKNTVYLQMNSLKPEDTAVYYCAAETWYSVLWEEGYDYWGQGTQVTVSS | low polyreactivity
3 | QVQLVESGGGLVQAGGSLRLSCAASGRTFTGYTMGWYRQAPGKEREFVAAISSNGGRTYYADSVKGRFTISRDNAKNTVYIQMNSLKPEDTAVYYCAAPYTFWGQGTQVTVSS | high polyreactivity
4 | QVQLVESGGGLVQAGGSLRLSCAASGRTFTHNTMGWYRQAPGKERELVAAISRSGASTYYADSVKGRFTISRDNAKNTVYLQMNRLKPEDTAVYYCNAYSRPHFGYVVGTKSRHGYWGQGTQVTVSS | high polyreactivity
5 | QVQLVESGGGLVQAGGSLRLSCAASGRTFTHYAMGWYRQAPGKERELVAAISRSGGTTYYADSVKGRFTISRDNAKSTVYLQMNSLKPEDTAVYYCNAEVVDFELGVFEDYYWAYDYWGQGTQVTVSS | high polyreactivity
6 | QVQLVESGGGLVQAGGSLRLSCAASGRTFTHYAMGWYRQAPGKERELVAAISSGGGTYYADSVKGRFTISRDNAKNTVYLQMNSLKPEDTAVYYCNADYTNYHDPFRTYGYWGQGTQVTVSS | low polyreactivity
7 | QVQLVESGGGLVQAGGSLRLSCAASGRTFTINAMGWYRQAPGKERELVATIRVSGGSTYYADSVKGRFTISRDNAKNTVYLQMNSLKPEDTAVYYCAKGGTYFYAPAYDYWGQGTQVTVSS | low polyreactivity
8 | QVQLVESGGGLVQAGGSLRLSCAASGRTFTINTLGWYRQAAGKERELVAAIVGDGTTNYADSVKGLFTISGDNAKNTVDLQMNSLKPEDTAVYYCAADAGYLYDWPYNSYYWGQGTQLTVSS | low polyreactivity
9 | QVQLVESGGGLVQAGGSLRLSCAASGRTFTIYARGWYRQAPGKERELVAAIRRTGVSTYYADSVKGRFTISRDYAKNTVYLQMNSLKPEDTAVYYCAARQYSYLRLWWYEYWGQGTQVTVSS | high polyreactivity
10 | QVQLVESGGGLVQAGGSLRLSCAASGRTFTNNAMGWYRQAPGKERELVAAIRWSGGSTYYADSVKGRFTISRDNAKNTVYLQMNSLKPEDTAVYYCAKGYGYVEAVIVQYDYWGQGTQVTVSS | low polyreactivity
11 | QVQLVESGGGLVQAGGSLRLSCAASGRTFTPNAMGGYRQAPGKERELVAAIDWRGGRTYYADSVKGRFTISRDNAKNTVYLQMNSLKPEDSAVYYCAARVDGYHYKSAGYSYGVYYWGQGTQVTVSS | low polyreactivity
12 | QVQLVESGGGLVQAGGSLRLSCAASGRTFTPNAMGWYRQAPGKERELVASIRRGTSTYYADSVKGRFTISRDNAKNTVYLQMNSLKPEDTAVYYCAAKSYHGYPFDYWGQGTQVTVSS | high polyreactivity
13 | QVQLVESGGGLVQAGGSLRLSCAASGRTFTPYAMGWYRQAPGKERELVAAINSDGSTNYADSVKGRFTISRDNAKNTVYLHMNSLKPEDTAVYYCAAGYSLEGDYWGQGTQVTVSS | low polyreactivity
14 | QVQLVESGGGLVQAGGSLRLSCAASGRTFTPYAMGWYRQAPGKERELVATISSGTSTNYADSVNGRFTISRDNAKNTVYLQMNSLKPEDTAVYYCAADGYTYKFDYWGQGTQVTVSS | low polyreactivity
15 | QVQLVESGGGLVQAGGSLRLSCAASGRTFTPYDMGWYRQAPGKERELVAAITWRGGSTYYADSVKGRFTISRDNAKNTVYLQMNSLKPEDTAVYYCAKDRWTYAFRVGYGYWGQGTQVTVSS | high polyreactivity
16 | QVQLVESGGGLVQAGGSLRLSCAASGRTFTRNAMGWYRQAPGKERELVAAISYSGGSTYYADSVKGRFTISRDNAKNTVYLQMNSLKPEDTAVYYCNAATSRRSIRYDYWGQGTQVTVSS | high polyreactivity
17 | QVQLVESGGGLVQAGGSLRLSCAASGRTFTRYAMGWYRQAPGKERELVAAISWSGTSTHYADSVKGGFTISRDNATNTVYLQMNSLKPEDTAVYYCAARRYPVLKYDYWGQGTQVTVSS | high polyreactivity
18 | QVQLVESGGGLVQAGGSLRLSCAASGRTFTRYTMGWYRQAPGKERELVAAIRYSGGSTYYADSVKGRFTISRDNAKNTVYLQMNSLKPEDTAVYYCAARSYYYGFLYRYDYWGQGTQVTVSS | low polyreactivity
19 | QVQLVESGGGLVQAGGSLRLSCAASGRTFTSYAMGWYRQAPGKEREFVAAITTSGGSTYYTDSVKGRFTISRDNAKNTVYLQMNSLKPEDTAVYYCAAYVAYDRSGQYDYWGQGTQVTVSS | high polyreactivity
20 | QVQLVESGGGLVQAGGSLRLSCAASGRTFTSYAMGWYRQAPGKERELVAGISSGGSTFYADSVKGRFTISRDNAQNTVYLQMNSLKPEDTAVYYCAADFRRVFSKYSYYLYFDFDYWGQGTQVTVSS | low polyreactivity
21 | QVQLVESGGGLVQAGGSLRLSCAASGRTFTVNRMGWYRQAPGKERELVAGITLRGANTYYADSVKGRFTISRDNAKNTVYLQMNSLKPEDTAVYYCNDDVKYRYNHWGQGTQVTVSS | high polyreactivity
22 | QVQLVESGGGLVQAGGSLRLSCAASGRTFTVYAMGWYRPAPGKERELVAAISSGGITYYADSVKGRFTISRDNAKNTVYLQMNSLKPEDTAVYYCNTKSGKARYEFGYWGQGTQVTVSS | low polyreactivity

Row | Sequence | polyreactivity (PSR sort gate)
23 | QVQLVESGGGLVQAGGSLRLSCAASGRTFTVYAMGWYRQAPGKEREFVASISKSGGRTYYADSVKGRFTISRDNAKNTVYLQMNSLKPEDTAVYYCAKVETYLQIAYRRGYDSWGQGTQVTVSS | low polyreactivity
24 | QVQLVESGGGLVQAGGSLRLSCAASGRTFTVYAMGWYRQAPGKERELVATISGSTGSTYYADSVKGRFTISRDNAKNTVYLQMNSLKPEDTAVYYCAARVRYRYLIGSGFDYWGQGTQVTVSS | low polyreactivity
25 | QVQLVESGGGLVQAGGSLRLSCAASGRTFTYNAMGWYRQAPGKDRELVASIRRSGTITYSADSVKGRFTISRDNAKNTVYLQMNSLKPEDTAVYYCAARYPWYRYYSWGQGTQVTVSS | high polyreactivity
26 | QVQLVESGGGLVQAGGSLRLSCAASGRTFTYNAMGWYRQAPGKERELVAAISSSGGRTYYADSVKGRFTISRDNAKNTVYLQMNSLKPEDTAVYYCNKVKYRFSPPGYDYWGQGTQVTVSS | high polyreactivity
27 | QVQLVESGGGLVQAGGSLRLSCAASGRTFTYNTMGWYRQETGKQRELVAAISSSGGSTYYADSVKGRFTISRDNAKNTVYLQMNSLKPEDTAVYYCAKRYFSSSRYYYWGQGTQVTVSS | high polyreactivity
28 | QVQLVESGGGLVQAGGSLRLSCAASGRTFTYNVLGWYRVAPGKERELVAAITSGGSNYADSVKGRFTISRDNAKNTVYLQLNSLKPEDTAGYYCATDYYDDVTIGYDYWGPGTQVTVSS | low polyreactivity
29 | QVQLVESGGGLVQAGGSLRLSCAASGRTFTYYAMGWYIQAPGKERELVAAISSGGRTYYADSVKGRFTISRDNAKNTVYLQMNSLKPEDTAVYYCAADAYRSPWRLYGSRFGYWGQGTQVTVSS | high polyreactivity
30 | QVQLVESGGGLVQAGGSLRLSCAASGRTFTYYAMGWYRQAPGKERELVAAISRGGGSTHYADSVKGRFTISRDNEKNTVYLQMNSLKPEDTAVYYCAARYSTRYKYDYWGQGTQVTVSS | high polyreactivity
31 | QVQLVESGGGLVQAGGSLRLSCAASGRTFTYYAMGWYRQAPGKERELVAAITGRGGRTYYADSVKGRFTISRDIAKNTVYLQMNSLKREDTAVYYCATRDPYYSSEYTYGYWGQGTQVTVSS | high polyreactivity
32 | QVQLVESGGGLVQAGGSLRLSCAASGRTFTYYAMGWYRRAPGKERELVAAIRWTGDSTYYADSVKGRFTISRDNAKNTVYLQMNSLKPEHTAVYYCATQARWQYDGGIRWYYYWGQGTQVTVSS | high polyreactivity
33 | QVQLVESGGGLVQAGGSLRLSCAASGRTFTYYTMGWYRQAPGKERELVAAITWSGGRTYYADSVKGRFTISRDNAKNTVYLQMNSLKPEDTAVYYCAKPPQGTYDYWGQGTQVTVSS | low polyreactivity
34 | QVQLVESGGGLVQAGGSLRLSCAASGRTFVANGMGGYRQAPGKERELVAAINYGDDTYYADSVKGRFTISRDNAKNTVYLQMNSQKPEDTAFYFLAADIIYGYEVYTYTSDYWGQGTQVTVSS | low polyreactivity
35 | QVQLVESGGGLVQAGGSLRLSCAASGRTFVDYDMGWYRQAPGKERELVADINSGGSTYYADSVKGRFTISRDNAKNTVYLQMNSQKPEDTAVYDCAVRSRGTAPQYYYWGQGTQVTVSS | high polyreactivity
36 | QVQLVESGGGLVQAGGSLRLSCAASGRTFVENAMGWYRQAPGKERELVAAITYRGGRTFYADSVKGRFTISRDNAKNTVYLQMNSLKPEDTAVYYCNAVRRTGGHGDYWGQGTQVTVSS | high polyreactivity
37 | QVQLVESGGGLVQAGGSLRLSCAASGRTFVEYAMGWYRPAPGKERELVAAITWDGGSTYYADSVKGRFTISRDNAKYTVYLQMNSLKPEDTAVYYCNADYRQITSYGFDYWGQGTQVTVSS | low polyreactivity
38 | QVQLVESGGGLVQAGGSLRLSCAASGRTFVFYAMGWYRQAPGKESEFVARITWSGGRTFYADSVKGRFTISRDNAKNTVYLQMNSLKPEDTAVYYCAARGHDAVIATRYDYWGQGTQVTVSS | high polyreactivity
39 | QVQLVESGGGLVQAGGSLRLSCAASGRTFVFYTMGWYRQAPGKERELVAAINSRGGRTYYADSVKGRFTISRDNAKNPVYLQMNSLKPEDTAVYYCNAAFYVTDHDYWGKGTQVTVSS | high polyreactivity
40 | QVQLVESGGGLVQAGGSLRLSCAASGRTFVGNAIGWYRQATGKERELVAAINGSGGSTYYEDSVKGRFTISRDNAKNTVYLQMNSLKPEDPAVYYCNARPGVYVVIYDYWGQGTQVTVSS | low polyreactivity
41 | QVQLVESGGGLVQAGGSLRLSCAASGRTFVGYAMGWYRQAPGKERELVAAISGGGRTNYADSVKGRFTISRDNAKNTVYLQMISLKPEDTAVYYFAARLVKYFRPYDYWGQGTQVTVSS | high polyreactivity
42 | QVQLVESGGGLVQAGGSLRLSCAASGRTFVGYAMGWYRQAPGKERELVAAITSGGSTYYADSVKGRFTISRDNAKNTVYLQMNSLKPEDTAVYYCATALYDWYSLEFDYWGQGTQVTVSS | low polyreactivity
43 | QVQLVESGGGLVQAGGSLRLSCAASGRTFVGYAMGWYRQAPGKERELVAAMSASGTSTYYADSVKGRFTISRDNAKNTVYLQMNSLKPEDTAVYYCAKAKDLPPRYGSWGQGTQVTVSS | high polyreactivity
